For this experiment, the target named is T1, His6-tagged Mcm10 (human, UniProt Q7L590 1-875).
T1 sequence (looked up): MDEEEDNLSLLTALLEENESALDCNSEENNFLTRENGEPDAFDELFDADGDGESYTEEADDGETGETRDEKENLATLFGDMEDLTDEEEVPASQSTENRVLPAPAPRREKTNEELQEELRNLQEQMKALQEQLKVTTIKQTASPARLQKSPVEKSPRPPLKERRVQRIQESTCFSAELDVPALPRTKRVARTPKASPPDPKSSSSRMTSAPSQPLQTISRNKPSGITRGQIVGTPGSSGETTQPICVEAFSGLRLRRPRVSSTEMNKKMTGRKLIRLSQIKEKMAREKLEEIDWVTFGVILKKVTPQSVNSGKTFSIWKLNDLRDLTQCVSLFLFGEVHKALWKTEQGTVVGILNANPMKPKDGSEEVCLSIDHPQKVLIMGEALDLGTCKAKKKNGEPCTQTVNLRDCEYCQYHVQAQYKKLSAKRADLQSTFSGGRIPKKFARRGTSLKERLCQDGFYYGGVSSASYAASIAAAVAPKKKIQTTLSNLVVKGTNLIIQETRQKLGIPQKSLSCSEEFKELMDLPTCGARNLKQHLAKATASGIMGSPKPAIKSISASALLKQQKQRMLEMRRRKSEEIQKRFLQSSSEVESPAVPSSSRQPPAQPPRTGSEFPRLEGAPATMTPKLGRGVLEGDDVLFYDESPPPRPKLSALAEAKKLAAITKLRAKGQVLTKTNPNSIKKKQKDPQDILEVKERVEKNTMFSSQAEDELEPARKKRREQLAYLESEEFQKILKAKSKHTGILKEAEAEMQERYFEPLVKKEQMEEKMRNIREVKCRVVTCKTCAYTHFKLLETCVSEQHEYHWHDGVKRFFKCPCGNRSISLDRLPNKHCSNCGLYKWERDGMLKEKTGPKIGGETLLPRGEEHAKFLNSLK
Put plainly: pull-down.

Consider 1 molecule from PMC3424545 (Nucleic Acids Research, 2012).

B1: GST-tagged C-terminus VprBP (864-1507) (domain or fragment)
chain: not shown
Take B1: the binding result was “binds”.
